In patent publication US20140314780A1, “Compositions Using Antibodies Directed to GPNMB and Uses Thereof” (Celldex Therapeutics, Inc., priority 2008, published 2014):
Entries after “also recorded” stand apart in the source; their conditions may differ.

Assays:
[1] = tested on: GPNMB surface expression on WM2664 melanoma cells; assay: Flow cytometry of GPNMB surface expression, WM2664 cells; assay type: cell-based, human; conditions: for GPNMB surface expression, flow cytometry GeoMean: WM2664, CR011 (anti-GPNMB) primary antibody; for GPNMB surface expression: melanoma cells (WM2664), 48 hours (Table 37, bottom right)
Experimental: The following day, cells were treated as indicated in the figures/legends, harvested with versene (Invitrogen), washed with PBS and incubated with primary antibody (10 μg/mL) diluted in staining buffer (PBS pH 7.4, 4% FBS, 0.1% sodium azide) for 30 minutes on ice. […] After incubation with primary antibody, samples were washed with staining buffer and then incubated with secondary antibody (PE-conjugated anti-human antibody; 1:100) for 30 minutes on ice. After incubation, samples were washed with staining buffer and examined on a Becton Dickinson FACSCalibur flow cytometer (BD Immunocytometry Systems, San Jose, Calif.). Data analysis was performed with Becton Dickinson Cell Quest software and the geometric mean fluorescence intensity (GeoMean) was determined for each sample.
For the data shown in Table 37, flow cytometry was performed on intact, non-permeabilized cells using the indicated primary monoclonal antibodies. The CR011 antibody utilized was not MMAE-conjugated, but is the same antibody used to generate CR011-vcMMAE. The results are reported as GeoMeans. For the data shown in the top panel of Table 37, A375 (melanoma) or SF539 (glioblastoma) cells were treated with the indicated concentrations of MEKi (U0126), RAFKi (553013) or ERKi (FR180204) for 12, 24 or 48 hours prior to analysis. For the data shown in the bottom left panel of Table 37, SKMEL2 (melanoma) cells were treated with MEKi (U0126; 10 uM), imatinib (20 uM), p38i (p38 MAPKi SB202190; 50 uM), NH4Cl (ammonium chloride; 20 mM) or CLQ (chloroquine; 20 uM) for 48 hours prior to analysis. For the data shown in the bottom right panel of Table 37, WM2664 (melanoma) cells were treated with MON (monensin) or MMPi (GM6001) for 48 hours prior to analysis.

[2] = tested on: shed GPNMB; assay: GPNMB shedding: immunoblotting of conditioned media (supernatants); assay type: cell-based, human; conditions: conditioned media of WM2664, UACC62; 48 hours (FIG. 7A, 7B)
Description: Shedding of membrane proteins is a common phenomenon that may affect ADC activity. To investigate potential GPNMB shedding, conditioned media collected from melanoma cell lines was immunoblotted for GPNMB (FIG. 7A). […] Shed GPNMB was also readily detected in conditioned media harvested from several other melanoma and glioblastoma cell lines examined, although a very low level of shed GPNMB was found in conditioned media harvested from A375 melanoma cells, a finding which is consistent with the low basal level of GPNMB expression by these cells.

[3] = tested on: GPNMB; assay: Immunoblotting for GPNMB on whole-cell lysates of cancer cell lines after drug exposure; assay type: cell-based, human; conditions: whole-cell lysates, 48 hours (FIG. 7)
Description: Cancer cell lines were of human origin and were obtained from the American Type Culture Collection (Manassas, Va.) and from the National Cancer Institute (Bethesda, Md.) and cultured in RPMI-1640 supplemented with 10% FBS (growth media). Sources of reagents were as follows: RAFKi (553013), MEKi (U0126), MEKi (PD98059), MEKi (444939), ERKi (FR180204), p38 MAPKi (SB202190), p38 MAPKi (SB203580), aurora kinase inhibitor (189404), JNK inhibitor (420119), MMPi (GM6001) were from EMD Chemicals (San Diego, Calif.). ERKi (A6355), RAFKi: (GW5074), ammonium chloride (NH4Cl), chloroquine, monensin, cyclohexamide and emetine were from Sigma (Saint Louis, Mo.). HSP90i (geldanamycin) was from AG Scientific (San Diego, Calif.) and imatinib (Gleevec) was purchased from a pharmacy.
Cells were seeded in 6-well tissue culture dishes at a subconfluent density and allowed to attach overnight. For harvesting cell lysates, media was removed, cells were briefly washed with serum-free media and then 1× Tris-glycine SDS sample buffer (Invitrogen, Carlsbad, Calif.) supplemented with 10 mM dithiothreitol (Sigma) was added directly to the wells. Cell lysates were then collected and boiled for 10 minutes. For preparing conditioned media, drug treatments were performed in a minimum volume of growth media (1.5 mL/well). Following 48 hours of incubation, conditioned media was collected, briefly microfuged, mixed with an equal volume of 2× Tris-glycine SDS sample buffer (Invitrogen, Carlsbad, Calif.) supplemented with 20 mM dithiothreitol (Sigma) and boiled for 10 minutes. For cell lysates, samples were quantified and an equal quantity of protein/lane was resolved on 4-20% gradient polyacrylamide gels (Invitrogen) and then transferred to nitrocellulose filters (Invitrogen). The volume of conditioned media loaded/lane was adjusted based on the protein concentration determined in the respective cell lysates. Immunoblotting was performed using standard procedures and the following primary antibodies: MARTI (sc-20032), TYRP2 (sc-25544), TYRP1 (sc-25543), PMEL17 (sc-15010), MAGEA1 (sc-20033), MCSP (sc-20162), MTf (sc-26651), MCAM (sc-18942), pp-ERK (sc-7976) and ERK (sc-94) (preceding antibodies were purchased from Santa Cruz Biotechnologies, Santa Cruz, Calif.), GPNMB (AF2550; R & D Systems, Minneapolis Minn.), actin (A5060; Sigma). Following incubation with the appropriate horseradish peroxidase-conjugated secondary antibodies, enhanced chemiluminescence (GE Healthcare, Chalfont St. Giles, United Kingdom) was used for detection.

[4] = tested on: UACC62 melanoma cells; assay: In vitro growth-inhibition/cytotoxicity assay, UACC62 cells; assay type: cell-based, human; conditions: 0.16 μg/mL, 72 hours, trypan blue
[5] = target: T1, GPNMB (Homo sapiens, UniProt Q14956); assay: Epitope binning of anti-GPNMB antibodies (competitive binding)
T1 construct: V5His; made in house
T1 sequence (Q14956 23-492): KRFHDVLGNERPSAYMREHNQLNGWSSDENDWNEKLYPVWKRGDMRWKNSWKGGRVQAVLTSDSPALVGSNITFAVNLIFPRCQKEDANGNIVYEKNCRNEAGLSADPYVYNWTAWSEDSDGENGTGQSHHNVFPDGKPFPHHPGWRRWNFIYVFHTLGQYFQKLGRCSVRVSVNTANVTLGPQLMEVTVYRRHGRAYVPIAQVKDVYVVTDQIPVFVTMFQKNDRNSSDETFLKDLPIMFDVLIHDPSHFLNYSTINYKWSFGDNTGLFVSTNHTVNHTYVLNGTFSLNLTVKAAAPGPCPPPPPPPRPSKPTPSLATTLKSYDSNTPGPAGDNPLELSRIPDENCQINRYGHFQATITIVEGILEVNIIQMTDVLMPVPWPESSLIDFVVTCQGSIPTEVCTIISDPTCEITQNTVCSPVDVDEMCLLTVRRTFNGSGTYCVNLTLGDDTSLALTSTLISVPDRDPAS
Description: Certain antibodies, described herein were binned in accordance with the protocol described in U.S. Patent Application Publication No. 20030157730. […] Competitive binding by antibodies from […] supports antibody specificity for similar or adjacent epitopes. Non competitive binding supports antibody specificity for unique epitopes.
Three bins were created to further test the binding of six anti-GPNMB antibodies. Bin 1 included GPNMB antibodies (1.2.1), (1.10.1), and (2.22.1). Bin 2 included GPNMB antibodies (2.3.1) and (1.15.1), and Bin 3 included GPNMB antibody (2.10.1). The results of the binning assays are provided below in Tables 4 and 5.

[6] = tested on: shed GPNMB; assay: Immunoprecipitation of shed GPNMB; assay type: binding, human
[7] = tested on: CG56972 expressing cells; assay: Effect of naked mAb on CG56972 expressing cells in vivo; conditions: naked IgG2 mAb
Description: (§1) Fully human monoclonal antibodies (mAb)-IgG2 to CG56972/GPNMB, an antigen predominantly found on the surface of melanoma and brain tumor cells, were generated. […] Thus it was examined whether isotype switching from an IgG2 to an IgG1 might enable the mAb to kill human melanoma cells through ADCC effector functions.

[8] = tested on: CG56972 expressing cells; assay: Effect of naked mAb on CG56972 expressing cells in vitro; assay type: cell-based; conditions: naked IgG2 mAb
Description: as §1

CNC(=O)[C@H](Cc1c[nH]c2ccccc12)NC(=O)[C@@H](CC(=O)NO)CC(C)C [GM6001]
GPNMB surface expression, flow cytometry GeoMean ([1]; MMPi 25 uM): 55.9 | GPNMB surface expression, flow cytometry GeoMean ([1]; MMPi 50 uM): 68.9 | GPNMB surface expression, flow cytometry GeoMean ([1]; MMPi 100 uM): 66.8 | GPNMB surface expression [1]: increased GPNMB surface expression | GPNMB shedding [2]: decreased or eliminated

CC[C@@]1([C@@H]2O[C@@H]([C@H]3O[C@@](O)(CO)[C@H](C)C[C@@H]3C)C[C@@H]2C)CC[C@H]([C@]2(C)CC[C@]3(C[C@H](O)[C@@H](C)[C@@H]([C@@H](C)[C@@H](OC)[C@H](C)C(=O)O)O3)O2)O1 [monensin]
GPNMB surface expression, flow cytometry GeoMean ([1]; MON 250 nM): 88.9 | GPNMB surface expression, flow cytometry GeoMean ([1]; MON 500 nM): 86.8 | GPNMB surface expression [1]: increased GPNMB surface expression | faster migrating ~110 kDa GPNMB species [3]: increased the expression | slowest migrating cell-associated ~130 kDa GPNMB species [3]: decreased or eliminated | GPNMB shedding [2]: decreased or eliminated; also recorded: strong inhibition

CR011-vcMMAE: antibody-drug conjugate of anti-GPNMB antibody CR011 with Auristatin E (vcMMAE) through a protease-cleavable linker
growth-inhibition ([4]; UACC62 cells not pretreated with the MEK inhibitor): little growth-inhibition | growth-inhibition ([4]; UACC62 cells pretreated with the MEK inhibitor (U0126 1 μM, 48 hours)): strong growth-inhibition

CR011: fully human monoclonal antibody that specifically binds to GPNMB; VH SEQ ID NO: 20, VL SEQ ID NO: 29
epitope bin ([5]; Table 4): VIII | binning assay signal (antibody pair matrix) ([5]; Table 4, paired with column BB): −19 | binning assay signal (antibody pair matrix) ([5]; Table 4, paired with column antibody 1.1): 91 | binning assay signal (antibody pair matrix) ([5]; Table 4, paired with column antibody 1.11): 10 | binning assay signal (antibody pair matrix) ([5]; Table 4, paired with column antibody 1.12): 15 | binning assay signal (antibody pair matrix) ([5]; Table 4, paired with column antibody 1.13): 13 | binning assay signal (antibody pair matrix) ([5]; Table 4, paired with column antibody 1.15): 0 | binning assay signal (antibody pair matrix) ([5]; Table 4, paired with column antibody 1.2): 79 | binning assay signal (antibody pair matrix) ([5]; Table 4, paired with column antibody 1.3): 71 | binning assay signal (antibody pair matrix) ([5]; Table 4, paired with column antibody 1.5): 15 | binning assay signal (antibody pair matrix) ([5]; Table 4, paired with column antibody 1.7): 21 | binning assay signal (antibody pair matrix) ([5]; Table 4, paired with column antibody 1.8): 8 | binning assay signal (antibody pair matrix) ([5]; Table 4, paired with column antibody 1.9): 12 | binning assay signal (antibody pair matrix) ([5]; Table 4, paired with column xV5): 89 | epitope bin ([5]; Table 5, Cut-off = 90): VIII | binning assay signal (antibody pair matrix) ([5]; Table 5, paired with column BB): 59 | binning assay signal (antibody pair matrix) ([5]; Table 5, paired with column antibody 1.1): 127 | binning assay signal (antibody pair matrix) ([5]; Table 5, paired with column antibody 1.11): 19 | binning assay signal (antibody pair matrix) ([5]; Table 5, paired with column antibody 1.12): 21 | binning assay signal (antibody pair matrix) ([5]; Table 5, paired with column antibody 1.13): 5 | binning assay signal (antibody pair matrix) ([5]; Table 5, paired with column antibody 1.15): 0 | binning assay signal (antibody pair matrix) ([5]; Table 5, paired with column antibody 1.2): 90 | binning assay signal (antibody pair matrix) ([5]; Table 5, paired with column antibody 1.3): 51 | binning assay signal (antibody pair matrix) ([5]; Table 5, paired with column antibody 1.5): −9 | binning assay signal (antibody pair matrix) ([5]; Table 5, paired with column antibody 1.7): 17 | binning assay signal (antibody pair matrix) ([5]; Table 5, paired with column antibody 1.8): 12 | binning assay signal (antibody pair matrix) ([5]; Table 5, paired with column antibody 1.9): 19 | binning assay signal (antibody pair matrix) ([5]; Table 5, paired with column xV5): 125 | epitope bin ([5]; six anti-GPNMB antibodies, three bins): Bin 2 | recognition of shed GPNMB [6]: recognize shed GPNMB | effect on CG56972 expressing cells [7]: no effect | effect on CG56972 expressing cells [8]: no effect
